# From the domain aggregation screens of Martell et al. (2025)
# Test: soluble fraction after stress (log2 fold change); higher = more stays soluble; pooled small domains, quantitative proteomics
# Details: stress: pH 4
# Summary of the method: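 Pooled custom libraries of small protein domains were subjected to pH 4 and measured by high-throughput quantitative proteomics. The log2 fold change in soluble amount per domain is reported, higher values meaning more remained soluble. This is used as a measure of aggregation propensity.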
row,Sequence,soluble fraction (log2)
1,HMLAVPADFAEKLQSLRSQLASDDLDASDAFGRLQPFIKALYPAQLEALRKAVDDFDFVEATRLIDQLPQ,-0.954
2,HMLAYQRTYEKILEDLRNDVYPVNSLLPPEPKLEEIYHVSRTTVRRAIAQLADEGYVKVKQGYGTVVLKN,0.22
3,HMLDEPPVSQTLTTYDREHMALYLRLLDSARDGADWREAVQILFGLDPTRDPLRSRHVHDTHLARARWM,-0.452
4,HMLDFGQEDSEAVSEIILVLGRYWMDFSHKKYPEAEGSALRHKGISHIFTVLKPYLTSATAQLIEQRLQQ,-0.398
5,HMLDIQKKGENIAYIEGAGDVIPESLKQIGYHVVTIAPKDINAETLSRFDAVVVGIRAYNTVEDL,-0.241
6,HMLDKIRTYIDNSFTGVNETKKVKELKDELFENLKEKYNDQIQDGKTEQEAYNSVISGIGDLSELIESVK,-0.0804
7,HMLDKKKHLEQGRKIIEDQLAKYKIQPSFDTLKKLSAYYGLNNKEQLYAQVGMGFLELENLDEILQ,-0.347
8,HMLDLPVRTINGRQYYYYEVRNRETVYGLSKRLGVTREEIVRYNPSMADGLKRGAILYFPVDEFSDRI,-0.0139
9,HMLDLSDFEVVRDLYLSEQIWNVGDLIIARSKKDDTYKAWEIIRKGTNYVTGIDESHKVEKIWLHDILI,-1.1
10,HMLDSPHDDLNRKIVQMLQNDGRLPYKDIAEVLSVSEGTVRNRVQRMRDAGMLNIVALIDPMAI,-0.498
11,HMLDTPLTARELDVLYLMRQRMSAKEIAKQLGIATMTVNRHAANLYRKLGVNTRWDAVYRAEEVGILPP,-0.592
12,HMLDVNLIFSRPGFSLSAAFTLHAGGITVLRGDSGSGKTTLADLLSGAIAPQKGRILSDGDIWFDAASGIN,-0.163
13,HMLDYITLSPQELGKLLSAGNGDAAMVYLYMKATGDVTLKQAETQLGMTNQNLAWAESLLKRLGLMD,-0.501
14,HMLDYKSALQELLQAQRRSRPRYEVISTEGPDHERVFEVAVWLDNEELGRGKGRSKREAEHQAAQAALTQL,-0.626
15,HMLDYQLQVFKDTLEANRKHRGQKIVFIHGKGEGVLRRALIHALNYQYKKFTYQDASFREYGYGATQVTI,-0.0148
16,HMLEEIDYPEEQLQLLFAWSRDHVQSTPPGLPVVDDHVWHILVRGYGATDQRTEAFALLASYAGFP,-0.722
17,HMLEIDPPVDEISVSRKAFYEAAGYKVNPYTHIPPRYRKEFEEHSFVVMSWPRELPEETYRKFDRYLRDV,-0.253
18,HMLEIRGFTVLLSDRGIVGIIEEIIQNPGQDLLRILSPEKREILVPLHSDLITGINKKKKTITMNLPDGL,-0.775
19,HMLELTGEEEFVIRTLTRQGDLHINALVVETDIPINRMISLLFELEMKGVVKALVGGVYHLLG,-1.58
20,HMLELTVSDKMARLMAWRNRRRVNLSDQELHRIAAAPKQSPESILKMLPGFLQDSVPEIWAELTGGRP,-0.0678
21,HMLENSLDHIEGIGPKTKDTLLTYFKSVSKIKSANPSILAELIGAAKTKILLAAFEKEKTTS,0.17
22,HMLENYEGFKQKILKLTGIDLSSYKERQMRRRIDSLIHRNNYDDYDEYFKALTQNSNLYDEFINYLTI,-0.424
23,HMLEQEDMYGYQMIETLRERSEHSFDLKAGTLYPLLHALEQKGLITARDEASAAGRPRRYYHLTDAG,-1.05
24,HMLERPLFTPEQYGRFRGKEARIRLSNPVEGRKTLTGSIVEATEERIVVFVEEEEREVTVPFQWIKSGNL,-0.523
25,HMLESVMHSRIAEIISREGTAPAHMSMQEKIRVVHKLDADGILMMKGAVAEIADQLSVSVPTIYRYLNKPQ,≥ 0.43
26,HMLETILQIGKDGVGENLVKQVNDALEARELIKGRVLDNNLELDARTAAQILAKATRSEVVQVIGTKFV,0.0332
27,HMLEVTQTDVKMYTTSGTPVYAAPDLNSAIVVYLERFVNVTVTGITDNGFYRVNLNGDYYIPGPYLISSV,-0.759
28,HMLEYIEPRTAVQIHGIKAKPELNGKRGMVMGYAPERMRYRVRIDVGEGTGGKESEEVYLKPENVIAVK,0.101

row,Sequence,soluble fraction (log2)
1,HMLFKGDTREENVILEFLSKNGTTSSDAIIKQTGLSASEFNQAITMLELKGLALNNGGEKWSL,-0.0366
2,HMLGDAVLRQVLETIPEDPAVDYLELRRNTGMTEADLDRVLADLENLGVINKKRTVEQVLYWRT,-1.44
3,HMLGDAWSMLILRDAHSGFSRFDQFRKSLGIAPTMLTKRLSVLVDEGLLEKRQYSEHPPREEYVLTQAGQD,0.149
4,HMLGERIRTLRKEIGMSVTELARRVKTSPSHISEIERGEKMPSLNLLVKIAKELKTSIDYLTGLVG,-0.487
5,HMLGNIERALEMLQEVAATMDPVDIRLLLSMAQVESVRGNTEAAVKLIDEALVIDPGNERIEQIRLRVL,-0.869
6,HMLGRPDMSPIPEGSRNNDLHAWGFGRLANHPDNKRQIEADFFERGRISGLGDAEIRASWNSILRQLGHQ,0.276
7,HMLGSVRTIRQVLDDGRLIVADGGGNPSVIRRSGALAHETFANGQRVIVDPSGRLALELLPD,0.315
8,HMLGVLEYYNNGQKKSERTFKGGMQIYTEWYENGQMKAEERKWIDQLGSLKFLNLLSTEWDENGNEISRME,-1.28
9,HMLGYGEQEREAQKYLEMHTAFQADPSLQKMYLPENQYALISKVMEMTGIKNVKSYLTPPNEL,-0.236
10,HMLHVRSALMSELDGIEGIGEKRKRLLFDAFITRDAIAAATLEQLMAVKGMNRPSAEAVHKHFHG,0.203
11,HMLIELKIPSEWAGKSLHTLNLRQNYNVNVIGFRDEKSGKLNTHFDPSKKLPDEGIILVVADNRTLEKF,-0.451
12,HMLIIDLPDFTNKKLSELQQWADANQITLKIVEKDVSSKPYDTILEQTPAKNKYEKIVKGSTMTVTVNIK,-0.272
13,HMLINFPNKLKRLRLANNLTQQELANILETTKQAVSSYESGKSTPSLNSLIKLSEHFNISLDSLVFD,-0.446
14,HMLINIKTNSAVNVRSGPGMGFEVVNTYPSGYILQAKEMQKDGGDNVWYKVKDGWLSANYTIDI,0.394
15,HMLINPLDILRNFNLSLYDDSRDSASNKEIDEIFESIKTNNSHIFSTLKAYRIPLPIASLIIKKIIKITLE,-0.882
16,HMLISDENMLRDLVQAVLDENPKSVSDYKSGKTKAFGFLVGQTMKAVKGQADPMLVNKILTELLN,-0.0698
17,HMLISYRVDALANEAGLSVDTIRYYQKLGILDPPKRTGRHSEYSPDHLERLIEIRRLADAGLTLSQISEI,-2.33
18,HMLKAKKIPVSDLEKFKGIVAEDVVSKAKALILPRGSNLSWLSNVAKKNLIAKLKAEGIEYISVYSS,0.0669
19,HMLKDGPIGAYADSVIRDIIEKMERFSKEHINVDMLKIHEKIMLIDEPIIRMALLDEFHRVSHDN,-1.2
20,HMLKEKETRALANFTNKFFGLDISEDLKPIALSELSKFKKTHKISNLEEFINSFQYDFQNEKILSLLDIFL,-0.879
21,HMLKFPIGTHVGKKKPSANLSLPNKHGVVIGHGERRNAKGAIMRFYIVETTHSSRPEEWAPGITYPL,-0.275
22,HMLKHEEIQEYIKEQINSGTWKPKAKLPSLRDMSELFSTSIGTVLTAYSALEKKHIIYSIPRSGYYVLG,-0.334
23,HMLKLEDIKKDAQVKGIVDGQIVRIVTVEPIGDHALTVYYKDHQGQFAERMLFRSDELNLELATA,-0.64
24,HMLKLSGEESQQLALRLREELARRRITRQGLADAAKISISTLEQVLAGRRTFTLATIVRLEEGLGIKLL,0.387
25,HMLKNKSTGNINETKAILELALNHSHFKVFDNRDMTVTFKNLATQFTTMQRILVQMFFPLPAGVELIIE,0.268
26,HMLKNYATPEQRAQLDMLKDKGIIGENELMQLGKYPSQDKASEVLENHADAVKMLDSDEISNRAEAIRSHD,0.22
27,HMLKPQQTQRIYAMAARLGVLESGNKNDMLHTIVYRLTQKESIRSLNENEYKTVVSELAERLKL,-0.917
